{
  "source": "paper PMC6173196",
  "about": "(Journal of immunology (Baltimore, Md. : 1950), 2018)",
  "molecules": {"B1": {"name": "biotinylated JES6–1 antibody mutant S34A (VL) (antibody, V domains shown)", "VH": "EIQLQQSGPELRRPGSSVKLSCKASGYNITDYLIHWVRHRPEHGLEWIGWIDPEDGETRYAQKFQSKATLTADTSSNAAYMQLSSLTPEDTATYFCARSLDSTYIYPFAYWGQGTLVTVSS", "VL": "DIVMTQSPFSLAVSEGEMVTINCKSSQSLLASGNQKNYLAWYQQKPGQSPKLLIYYASTGQSGVPDRFIGSGSGTDFTLTISDVQAEDLADYYCLQHYISPPTFGAGTKLELK"}, "B2": {"name": "biotinylated JES6–1 antibody mutant D55A (VH) (antibody, V domains shown)", "VH": "B1 VH with D52A", "VL": "B1 VL with A31S"}, "B3": {"name": "biotinylated JES6–1 antibody mutant Y41A (VL) (antibody, V domains shown)", "VH": "B1 VH", "VL": "B1 VL with A31S, Y38A"}, "B4": {"name": "biotinylated JES6–1 antibody mutant H100A (VL) (antibody, V domains shown)", "VH": "B1 VH", "VL": "B1 VL with A31S, H97A"}, "B5": {"name": "biotinylated JES6–1 antibody mutant R62A (VH) (antibody, V domains shown)", "VH": "B1 VH with R59A", "VL": "B1 VL with A31S"}, "B6": {"name": "biotinylated JES6–1 antibody mutant E60A (VH) (antibody, V domains shown)", "VH": "B1 VH with E57A", "VL": "B1 VL with A31S"}, "B7": {"name": "biotinylated JES6–1 antibody mutant D58A (VH) (antibody, V domains shown)", "VH": "B1 VH with D55A", "VL": "B1 VL with A31S"}, "B8": {"name": "biotinylated JES6–1 antibody mutant Y101A (VL) (antibody, V domains shown)", "VH": "B1 VH", "VL": "B1 VL with A31S, Y98A"}},
  "note": "Changes are numbered by the printed parent chain. Names may count otherwise.",
  "data": [
    {"molecular_target": "biotinylated mouse IL-2Rα (mIL-2Rα ectodomain with C-terminal biotin acceptor peptide) (mouse)", "assay": "SPR", "details": "not given", "units": {"Kd": "nM"}, "values": [
      {"molecule": "JES6–1 immunocytokine (IL-2 tethered to the N-terminus of the JES6–1 antibody light chain) (from UniProt P04351 21-169)", "Kd": 290},
      {"molecule": "JES6–1 immunocytokine mutant R62A (VH) (from UniProt P04351 21-169)", "Kd": 190},
      {"molecule": "JES6–1 immunocytokine mutant D58A (VH) (from UniProt P04351 21-169)", "Kd": 260},
      {"molecule": "JES6–1 immunocytokine mutant E60A (VH) (from UniProt P04351 21-169)", "Kd": 210},
      {"molecule": "JES6–1 immunocytokine mutant S34A (VL) (from UniProt P04351 21-169)", "Kd": 170},
      {"molecule": "JES6–1 immunocytokine mutant Y41A (VL) (from UniProt P04351 21-169)", "Kd": 130},
      {"molecule": "JES6–1 immunocytokine mutant D55A (VH) (from UniProt P04351 21-169)", "Kd": 230},
      {"molecule": "JES6–1 immunocytokine mutant H100A (VL) (from UniProt P04351 21-169)", "Kd": 240},
      {"molecule": "JES6–1 immunocytokine mutant Y101A (VL) (from UniProt P04351 21-169)", "Kd": 140}
    ]},
    {"molecular_target": "mouse IL-2 (mIL-2, amino acids 1–149), hexahistidine-tagged (Mus musculus, UniProt P04351)", "sequence (P04351 21-169)": "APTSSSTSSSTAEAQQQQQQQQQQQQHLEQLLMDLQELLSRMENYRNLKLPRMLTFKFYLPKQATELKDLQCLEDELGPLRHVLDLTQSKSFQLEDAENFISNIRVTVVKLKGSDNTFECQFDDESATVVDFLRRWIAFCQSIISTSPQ", "assay": "SPR", "details": "not given", "units": {"Kd": "nM"}, "values": [
      {"molecule": "B1", "Kd": 6.5},
      {"molecule": "B2", "Kd": 500},
      {"molecule": "B3", "Kd": 6.4},
      {"molecule": "B4", "Kd": 62},
      {"molecule": "B5", "Kd": 4.3},
      {"molecule": "B6", "Kd": 56},
      {"molecule": "B7", "Kd": 200},
      {"molecule": "B8", "Kd": 12}
    ]},
    {"molecular_target": "IL-2 receptor βγ (Homo sapiens) (UniProt P14784)", "sequence (P14784 27-240, chain 1 of 2)": "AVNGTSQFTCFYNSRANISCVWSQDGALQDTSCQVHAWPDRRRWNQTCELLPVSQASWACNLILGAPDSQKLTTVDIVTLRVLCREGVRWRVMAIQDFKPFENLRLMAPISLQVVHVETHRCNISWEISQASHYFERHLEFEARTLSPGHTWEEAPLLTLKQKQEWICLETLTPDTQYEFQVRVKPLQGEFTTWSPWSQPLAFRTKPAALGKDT", "sequence (P31785 23-262, chain 2 of 2, further chain)": "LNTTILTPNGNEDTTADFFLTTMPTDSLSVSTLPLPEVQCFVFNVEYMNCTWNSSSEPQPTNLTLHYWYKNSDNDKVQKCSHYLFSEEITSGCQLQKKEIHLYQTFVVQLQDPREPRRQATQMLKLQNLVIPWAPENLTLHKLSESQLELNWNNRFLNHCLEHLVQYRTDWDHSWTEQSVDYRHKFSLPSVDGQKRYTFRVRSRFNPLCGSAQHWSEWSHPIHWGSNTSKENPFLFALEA", "assay": "not given", "details": "cited from earlier work", "units": {"Kd": "nM"}, "values": [
      {"molecule": "IL-2 (from UniProt P60568)", "Kd": 1}
    ]},
    {"molecular_target": "biotinylated mouse IL-2Rα (mIL-2Rα ectodomain with C-terminal biotin acceptor peptide) (mouse)", "assay": "SPR", "details": "not given", "remark": "another data set of the same source", "units": {"Kd": "nM"}, "values": [
      {"molecule": "JES6–1 immunocytokine double mutant S34A+Y41A (VL) (from UniProt P04351 21-169)", "Kd": 210},
      {"molecule": "JES6–1 immunocytokine (IL-2 tethered to the N-terminus of the JES6–1 antibody light chain) (from UniProt P04351 21-169)", "Kd": 220},
      {"molecule": "JES6–1 immunocytokine double mutant S34A+Y101A (VL) (from UniProt P04351 21-169)", "Kd": 82},
      {"molecule": "JES6–1 immunocytokine triple mutant S34A+Y41A+Y101A (VL) (from UniProt P04351 21-169)", "Kd": 130},
      {"molecule": "JY3 immunocytokine (JES6–1 immunocytokine double mutant Y41A+Y101A, VL) (from UniProt P04351 21-169)", "Kd": 82}
    ]}
  ]
}
